9 molecules from article PMC9039505, “Ethylene precisely regulates anthocyanin synthesis in apple via a module comprising MdEIL1, MdMYB1, and MdMYB17” can be followed below.

The target of series [1] is T1, MdMYB17 (apple, UniProt D9ZJ54 1-196).
T1 sequence: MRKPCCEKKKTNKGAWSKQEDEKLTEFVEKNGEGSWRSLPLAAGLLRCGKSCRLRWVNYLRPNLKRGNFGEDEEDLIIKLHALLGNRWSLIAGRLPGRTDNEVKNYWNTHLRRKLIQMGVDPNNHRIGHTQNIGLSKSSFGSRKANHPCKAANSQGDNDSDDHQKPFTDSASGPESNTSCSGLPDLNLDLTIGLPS
Put plainly: EMSA; LightShift Chemiluminescent EMSA kit; buffer, salt, pH and temperature not stated; cold competitor 200-300-fold. The following applies: protein: recombinant; tags: His (pET-32a fusion); label: biotin; blunt.

Series [2] deals with T1, MdMYB17. Nature of the series: competition; unlabeled mutant competitor; LightShift Chemiluminescent EMSA kit; buffer, salt, pH and temperature not stated; cold competitor 200-300-fold. The following applies: protein: recombinant; tags: His (pET-32a fusion); blunt.
The next series has as its target T2, MdEIL1 (apple, UniProt D5L144 1-659).
T2 sequence: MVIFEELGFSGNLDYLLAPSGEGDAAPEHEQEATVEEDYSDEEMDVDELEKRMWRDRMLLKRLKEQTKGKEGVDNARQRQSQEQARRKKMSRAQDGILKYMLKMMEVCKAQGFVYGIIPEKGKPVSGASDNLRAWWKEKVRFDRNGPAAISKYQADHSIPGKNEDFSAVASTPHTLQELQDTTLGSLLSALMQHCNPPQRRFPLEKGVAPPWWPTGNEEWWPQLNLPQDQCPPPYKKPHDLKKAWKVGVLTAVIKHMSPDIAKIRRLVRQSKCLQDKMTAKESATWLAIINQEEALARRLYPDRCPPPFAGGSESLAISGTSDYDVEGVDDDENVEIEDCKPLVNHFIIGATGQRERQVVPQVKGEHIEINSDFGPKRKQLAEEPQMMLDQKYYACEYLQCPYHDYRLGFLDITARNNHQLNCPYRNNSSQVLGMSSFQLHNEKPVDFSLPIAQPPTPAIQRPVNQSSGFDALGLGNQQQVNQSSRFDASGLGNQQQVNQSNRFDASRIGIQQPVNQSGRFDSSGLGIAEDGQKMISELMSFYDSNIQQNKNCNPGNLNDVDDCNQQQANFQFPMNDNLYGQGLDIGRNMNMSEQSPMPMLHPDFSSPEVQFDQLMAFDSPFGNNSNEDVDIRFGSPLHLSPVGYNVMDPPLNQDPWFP
Nature of the series: EMSA; LightShift Chemiluminescent EMSA kit; buffer, salt, pH and temperature not stated; cold competitor 200-300-fold. The following applies: protein: recombinant; tags: His (pET-32a fusion); label: biotin; blunt. Background: A gel shift assay detects complexes by their altered migration in electrophoresis.

Another series addresses T3, MdMYB1 (apple, UniProt A0SQ35 1-243).
T3 sequence: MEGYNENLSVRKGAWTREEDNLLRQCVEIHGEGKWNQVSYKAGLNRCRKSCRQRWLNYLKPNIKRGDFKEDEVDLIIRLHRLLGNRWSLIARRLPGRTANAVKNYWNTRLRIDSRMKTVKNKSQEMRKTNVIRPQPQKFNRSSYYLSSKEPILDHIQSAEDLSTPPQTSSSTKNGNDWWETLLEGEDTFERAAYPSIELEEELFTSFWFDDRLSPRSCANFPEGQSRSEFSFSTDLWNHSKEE
The series is described as above. The note with it: protein: recombinant; tags: His (pET-32a fusion); label: biotin; blunt.

B1: MdDFR promoter MBS probe (dsDNA)
DNA 1: AAACTCCCTAAATAAACCAGTTGTACTGGTGGATAGGCCT
DNA 2: AGGCCTATCCACCAGTACAACTGGTTTATTTAGGGAGTTT
On to B1, for which the binding result in the series with MdMYB17 [1] is given as “binds”.

B2: MdDFR promoter MBS mutated (dsDNA)
DNA 1: AAACTCCCTAAATAAACCGGTCGTACTGGTGGATAGGCCT
DNA 2: AGGCCTATCCACCAGTACGACCGGTTTATTTAGGGAGTTT
For B2, in the series with MdMYB17 [2], the binding result is “no binding”.

B3: MdMYB17 promoter ATGTA1 probe (dsDNA)
DNA 1: TCAAATTAATTATAAATTAAATGTAACCATGACAAGGAAAGTGTC
DNA 2: GACACTTTCCTTGTCATGGTTACATTTAATTTATAATTAATTTGA
For the molecule B3, the binding result in the series with MdEIL1 is “binds”.

B4: MdUFGT promoter MBS probe (dsDNA)
DNA 1: GTCAAGTATGGTACAAACAACTGCAATAAAATATTGCCAC
DNA 2: GTGGCAATATTTTATTGCAGTTGTTTGTACCATACTTGAC
As to B4, the binding result in the series with MdMYB17 [1] is “binds”.

B5: MdUFGT promoter MBS mutated (dsDNA)
DNA 1: GTCAAGTATGGTACAAACGACTACAATAAAATATTGCCAC
DNA 2: GTGGCAATATTTTATTGTAGTCGTTTGTACCATACTTGAC
For B5, in the series with MdMYB17 [2], the binding result is “no binding”.

B6: MdEIL1 promoter MRE2 probe (dsDNA)
DNA 1: ATTGTTCTGTTTATTGTTTAGGTTAATCTGTTCTTATCTGC
DNA 2: GCAGATAAGAACAGATTAACCTAAACAATAAACAGAACAAT
As to B6, in the series with MdMYB17 [1], the binding result is listed as “binds”.

B7: MdMYB1 promoter MBS probe (dsDNA)
DNA 1: AGACTGGTAGCTATTAACAACTGTTGGAATGTTTTAAACT
DNA 2: AGTTTAAAACATTCCAACAGTTGTTAATAGCTACCAGTCT
In the case of B7, the binding result with MdMYB17 [1] is “binds”.

B8: MdMYB1 promoter MBS mutated (dsDNA)
DNA 1: AGACTGGTAGCTATTAACGACTATTGGAATGTTTTAAACT
DNA 2: AGTTTAAAACATTCCAATAGTCGTTAATAGCTACCAGTCT
As to B8, the binding result with MdMYB17 [2] is on record as “no binding”.

B9: MdMYB17 promoter MBS3 probe (dsDNA)
DNA 1: AGATGTGTAGTTAAATTACCCAACTGTAAGTCAAGCGGAGTAGTCA
DNA 2: TGACTACTCCGCTTGACTTACAGTTGGGTAATTTAACTACACATCT
In the case of B9, the binding result with MdMYB1 was “binds”.
